# Measurements as given in patent US20120034160A1 (AbbVie / Abbott, published 2012).
# Numbering of substitutions follows the chain as printed.
# T1: Recombinant Human IL-17 (human, UniProt Q16552 20-155, limits assumed)
# T1 sequence (looked up): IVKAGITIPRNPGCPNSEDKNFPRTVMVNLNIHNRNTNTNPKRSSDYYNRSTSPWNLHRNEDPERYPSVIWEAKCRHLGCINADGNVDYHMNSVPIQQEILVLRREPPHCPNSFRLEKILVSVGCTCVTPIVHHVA
# B1: DVD1644 (bispecific antibody, human IgG1, kappa)
# heavy: not shown
# light: EIVLTQSPDFQSVTPKEKVTITCRASQNIGSELHWYQQKPDQSPKLLIKYASHSISGVPSRFSGSGSGTDFTLTINGLEAEDAATYYCHQSDTLPHTFGQGTKVDIKRTVAAPDTQVTQSPSSLSASVGDRVTITCITSTDIDVDMNWYQQKPGKPPKLLISQGNTLRPGVPSRFSSSGSGTDFTFTISSLQPEDFATYYCLQSDNLPLTFGQGTKLEIKRTVAAPSVFIFPPSDEQLKSGTASVVCLLNNFYPREAKVQWKVDNALQSGNSQESVTEQDSKDSTYSLSSTLTLSKADYEKHKVYACEVTHQGLSSPVTKSFNRGEC
# B2: DVD1621 (bispecific antibody, human IgG1, kappa)
# heavy: not shown
# light: DIQMTQSPSSLSASVGDRVTITCRASGNIHNYLTWYQQTPGKAPKLLIYNAKTLADGVPSRFSGSGSGTDYTFTISSLQPEDIATYYCQHFWSIPYTFGQGTKLQITRTVAAPDIQMTQSPSSLSASVGDRVTITCRASSGIISYIDWFQQKPGKAPKRLIYATFDLASGVPSRFSGSGSGTDYTLTISSLQPEDFATYYCRQVGSYPETFGQGTKLEIKRTVAAPSVFIFPPSDEQLKSGTASVVCLLNNFYPREAKVQWKVDNALQSGNSQESVTEQDSKDSTYSLSSTLTLSKADYEKHKVYACEVTHQGLSSPVTKSFNRGEC
# B3: DVD1625 (bispecific antibody, human IgG1, kappa)
# heavy: not shown
# light: DTVVTQSPAFLSVTPGEKVTITCITSTDIDVDMNWYQQKPDQPPKLLISQGNTLRPGVPSRFSSSGSGTDFTFTISSLEAEDAATYYCLQSDNLPLTFGQGTKLEIKRTVAAPDIQMTQSPSSLSASVGDRVTITCRASSGIISYIDWFQQKPGKAPKRLIYATFDLASGVPSRFSGSGSGTDYTLTISSLQPEDFATYYCRQVGSYPETFGQGTKLEIKRTVAAPSVFIFPPSDEQLKSGTASVVCLLNNFYPREAKVQWKVDNALQSGNSQESVTEQDSKDSTYSLSSTLTLSKADYEKHKVYACEVTHQGLSSPVTKSFNRGEC
# B4: DVD1624 (bispecific antibody, human IgG1, kappa)
# heavy: not shown
# light: DIQMTQSPSSLSASVGDRVTITCRASSGIISYIDWFQQKPGKAPKRLIYATFDLASGVPSRFSGSGSGTDYTLTISSLQPEDFATYYCRQVGSYPETFGQGTKLEIKRTVAAPDTQVTQSPSSLSASVGDRVTITCITSTDIDVDMNWYQQKPGKPPKLLISQGNTLRPGVPSRFSSSGSGTDFTFTISSLQPEDFATYYCLQSDNLPLTFGQGTKLEIKRTVAAPSVFIFPPSDEQLKSGTASVVCLLNNFYPREAKVQWKVDNALQSGNSQESVTEQDSKDSTYSLSSTLTLSKADYEKHKVYACEVTHQGLSSPVTKSFNRGEC
# B5: DVD1628 (bispecific antibody, human IgG1, kappa)
# heavy: not shown
# light: B4 light with D114E, Q116T
# B6: DVD1623 (bispecific antibody, human IgG1, kappa)
# heavy: not shown
# light: DTQVTQSPSSLSASVGDRVTITCITSTDIDVDMNWYQQKPGKPPKLLISQGNTLRPGVPSRFSSSGSGTDFTFTISSLQPEDFATYYCLQSDNLPLTFGQGTKLEIKRTVAAPDIQMTQSPSSLSASVGDRVTITCRASSGIISYIDWFQQKPGKAPKRLIYATFDLASGVPSRFSGSGSGTDYTLTISSLQPEDFATYYCRQVGSYPETFGQGTKLEIKRTVAAPSVFIFPPSDEQLKSGTASVVCLLNNFYPREAKVQWKVDNALQSGNSQESVTEQDSKDSTYSLSSTLTLSKADYEKHKVYACEVTHQGLSSPVTKSFNRGEC
# B7: DVD1627 (bispecific antibody, human IgG1, kappa)
# heavy: not shown
# light: B6 light with D1E, Q3T
# B8: DVD1622 (bispecific antibody, human IgG1, kappa)
# heavy: not shown
# light: DIQMTQSPSSLSASVGDRVTITCRASSGIISYIDWFQQKPGKAPKRLIYATFDLASGVPSRFSGSGSGTDYTLTISSLQPEDFATYYCRQVGSYPETFGQGTKLEIKRTVAAPDIQMTQSPSSLSASVGDRVTITCRASGNIHNYLTWYQQTPGKAPKLLIYNAKTLADGVPSRFSGSGSGTDYTFTISSLQPEDIATYYCQHFWSIPYTFGQGTKLQITRTVAAPSVFIFPPSDEQLKSGTASVVCLLNNFYPREAKVQWKVDNALQSGNSQESVTEQDSKDSTYSLSSTLTLSKADYEKHKVYACEVTHQGLSSPVTKSFNRGEC
# B9: DVD1629 (bispecific antibody, human IgG1, kappa)
# heavy: not shown
# light: DIQMTQSPSSLSASVGDRVTITCRASGNIHNYLTWYQQTPGKAPKLLIYNAKTLADGVPSRFSGSGSGTDYTFTISSLQPEDIATYYCQHFWSIPYTFGQGTKLQITRTVAAPEIVLTQSPDFQSVTPKEKVTITCRASQDIGSELHWYQQKPDQPPKLLIKYASHSTSGVPSRFSGSGSGTDFTLTINGLEAEDAGTYYCHQTDSLPYTFGPGTKVDIKRTVAAPSVFIFPPSDEQLKSGTASVVCLLNNFYPREAKVQWKVDNALQSGNSQESVTEQDSKDSTYSLSSTLTLSKADYEKHKVYACEVTHQGLSSPVTKSFNRGEC
# B10: DVD1631 (bispecific antibody, human IgG1, kappa)
# heavy: not shown
# light: B9 light
# B11: DVD1626 (bispecific antibody, human IgG1, kappa)
# heavy: not shown
# light: DIQMTQSPSSLSASVGDRVTITCRASSGIISYIDWFQQKPGKAPKRLIYATFDLASGVPSRFSGSGSGTDYTLTISSLQPEDFATYYCRQVGSYPETFGQGTKLEIKRTVAAPDTVVTQSPAFLSVTPGEKVTITCITSTDIDVDMNWYQQKPDQPPKLLISQGNTLRPGVPSRFSSSGSGTDFTFTISSLEAEDAATYYCLQSDNLPLTFGQGTKLEIKRTVAAPSVFIFPPSDEQLKSGTASVVCLLNNFYPREAKVQWKVDNALQSGNSQESVTEQDSKDSTYSLSSTLTLSKADYEKHKVYACEVTHQGLSSPVTKSFNRGEC
# B12: DVD1630 (bispecific antibody, human IgG1, kappa)
# heavy: not shown
# light: EIVLTQSPDFQSVTPKEKVTITCRASQDIGSELHWYQQKPDQPPKLLIKYASHSTSGVPSRFSGSGSGTDFTLTINGLEAEDAGTYYCHQTDSLPYTFGPGTKVDIKRTVAAPDIQMTQSPSSLSASVGDRVTITCRASGNIHNYLTWYQQTPGKAPKLLIYNAKTLADGVPSRFSGSGSGTDYTFTISSLQPEDIATYYCQHFWSIPYTFGQGTKLQITRTVAAPSVFIFPPSDEQLKSGTASVVCLLNNFYPREAKVQWKVDNALQSGNSQESVTEQDSKDSTYSLSSTLTLSKADYEKHKVYACEVTHQGLSSPVTKSFNRGEC
# B13: DVD1632 (bispecific antibody, human IgG1, kappa)
# heavy: not shown
# light: B12 light
# Target: Recombinant Human IL-1β (human, UniProt P01584 117-269)
# Experiment: cell-based or functional assay
Binder,C-Terminal VD IL-1β Neutralization Assay EC50,N-Terminal VD IL-1β Neutralization Assay EC50
B1,1.08 nM,–
B2,–,0.0114 nM
B3,–,0.522 nM
B4,> 20 nM,–
B5,5.85 nM,–
B6,–,0.16 nM
B7,–,0.621 nM
B8,3.92 nM,–
B9,–,0.0126 nM
B10,–,0.00417 nM
B11,17.4 nM,–
B12,9.38 nM,–
B13,0.438 nM,–

# Target: T1, Recombinant Human IL-17
# Experiment: cell-based or functional assay
Binder,N-terminal VD IL-17 Neutralization Assay EC50,C-terminal VD IL-17 Neutralization Assay EC50
B1,0.0122 nM,–
B2,–,0.0397 nM
B3,–,0.0076 nM
B4,0.0042 nM,–
B5,0.0163 nM,–
B6,–,0.0238 nM
B7,–,0.0586 nM
B8,0.0083 nM,–
B9,–,0.359 nM
B10,–,0.46 nM
B11,0.0064 nM,–
B12,0.0041 nM,–
B13,0.0065 nM,–
